{"source": "paper PMC10681173", "key": {"[1]": {"target": "N29D/A53D RMM double mutant fused to GFP10 or GFP11 (dm-RMM-10/11)", "test": "tripartite GFP (tGFP) reconstitution, in-cell fluorescence Fmax", "conditions": "data collected over 16 h, induction from the culture start, read off a plot"}, "SUMO-RMM-His6": {"target": "SUMO-RMM-His6", "test": "SEC; size-exclusion HPLC of TALON-purified samples"}, "[2]": {"target": "SUMO-RMM fused to GFP10 or GFP11 through the long linkers Lk30/27 (SUMO-RMM-GFP10, SUMO-RMM-GFP11)", "test": "split reporter (BiFC, NanoBiT); tripartite GFP in E. coli BL21(DE3) cells; single vector, POI-10 and POI-11 on a bicistronic mRNA under T7p, GFP1-9 independent; IPTG 10 uM from the start, 37°C; Fmax relative to the RMM reference"}, "[3]": {"target": "RMM BMC-H fused to GFP10 or GFP11 through the long linkers Lk30/27 (RMM-10/RMM-11, reference pair)", "test": "split reporter (BiFC, NanoBiT); tripartite GFP in E. coli BL21(DE3) cells; single vector, POI-10 and POI-11 on a bicistronic mRNA under T7p, GFP1-9 independent; IPTG 10 uM from the start, 37°C; Fmax relative to the RMM reference"}, "[4]": {"target": "RMM BMC-H fused to GFP10 or GFP11 through the long linkers Lk30/27 (RMM-10/RMM-11, reference pair)", "test": "split reporter (BiFC, NanoBiT); tripartite GFP in E. coli BL21(DE3) cells; single vector, all three partners on a single tricistronic mRNA; IPTG 10 uM from the start, 37°C"}, "[5]": {"target": "K26D RMM single mutant fused to GFP10 or GFP11 (sm-RMM-10/11)", "test": "tripartite GFP (tGFP) reconstitution, in-cell fluorescence Fmax", "conditions": "data collected over 16 h, induction from the culture start, read off a plot"}, "His6-tagged RMM": {"target": "His6-tagged RMM", "test": "SEC; size-exclusion HPLC of TALON-purified samples"}, "[6]": {"target": "RMM BMC-H with GFP10 or GFP11 at the N-terminus (N-ter tagged RMM-10/11)", "test": "split reporter (BiFC, NanoBiT); tripartite GFP in E. coli BL21(DE3) cells; single vector, POI-10 and POI-11 on a bicistronic mRNA under T7p, GFP1-9 independent; IPTG 10 uM from the start, 37°C; Fmax relative to the RMM reference"}, "[7]": {"target": "K26D/N29D/A53D RMM triple mutant fused to GFP10 or GFP11 (tm-RMM-10/11)", "test": "tripartite GFP (tGFP) reconstitution, in-cell fluorescence Fmax", "conditions": "data collected over 16 h, induction from the culture start, read off a plot"}, "[8]": {"conditions": "bicistron organization mode, parent: est. 103"}, "[9]": {"conditions": "independent-transcript organization mode, Lk30/27 linkers, parent: est. 100"}, "[10]": {"conditions": "tricistron organization mode, parent: est. 97"}}, "data": [{"substance": "RMM BMC-H fused to GFP10 or GFP11 through the long linkers Lk30/27 (RMM-10/RMM-11, reference pair) N29D; A53D", "values": [{"measurement": "percent of parent", "setting": "[1]; [8]", "result": 102, "unit": "%"}, {"measurement": "percent of parent", "setting": "[1]; [9]", "result": 124, "unit": "%"}, {"measurement": "percent of parent", "setting": "[1]; [10]", "result": 108, "unit": "%"}]}, {"substance": "SUMO-RMM-His6", "values": [{"measurement": "stoichiometry N", "setting": "SUMO-RMM-His6", "result": 12}]}, {"substance": "SUMO-RMM fused to GFP10 or GFP11 through the long linkers Lk30/27 (SUMO-RMM-GFP10, SUMO-RMM-GFP11)", "values": [{"measurement": "Fmax as percent of the RMM pair reference", "setting": "[2]", "result": "50 to 65", "unit": "%"}, {"measurement": "Fmax as percent of the RMM pair reference", "setting": "[3]", "result": "50 to 65", "unit": "%"}]}, {"substance": "RMM BMC-H fused to GFP10 or GFP11 through the long linkers Lk30/27 (RMM-10/RMM-11, reference pair) (natural protein)", "values": [{"measurement": "Fmax as percent of the RMM pair reference", "setting": "[2]", "result": 115, "unit": "%"}, {"measurement": "ratio of RMM versus BWI signals", "setting": "[3]", "result": 15, "unit": "fold"}, {"measurement": "ratio of RMM versus BWI signals", "setting": "[4]", "result": 2, "unit": "fold"}]}, {"substance": "RMM BMC-H fused to GFP10 or GFP11 through the long linkers Lk30/27 (RMM-10/RMM-11, reference pair) K26D", "values": [{"measurement": "percent of parent", "setting": "[5]; [8]", "result": 107, "unit": "%"}, {"measurement": "percent of parent", "setting": "[5]; [9]", "result": 119, "unit": "%"}]}, {"substance": "His6-tagged RMM (natural protein)", "values": [{"measurement": "stoichiometry N", "setting": "His6-tagged RMM", "result": 6}]}, {"substance": "RMM BMC-H with GFP10 or GFP11 at the N-terminus (N-ter tagged RMM-10/11) (natural protein)", "values": [{"measurement": "fold drop of fluorescence against C-ter tagged RMM", "setting": "[6]", "result": 3, "unit": "fold"}]}, {"substance": "RMM BMC-H fused to GFP10 or GFP11 through the long linkers Lk30/27 (RMM-10/RMM-11, reference pair) K26D; N29D; A53D", "values": [{"measurement": "percent of parent", "setting": "[7]; [8]", "result": 39, "unit": "%"}, {"measurement": "percent of parent", "setting": "[7]; [9]", "result": 41, "unit": "%"}, {"measurement": "percent of parent", "setting": "[7]; [10]", "result": 40, "unit": "%"}]}]}
